{
  "source": "paper PMC2649101",
  "biological_target": "GCaMP2 [GFP: P42212]",
  "assay": "SEC",
  "data": [
    {"substance": "GCaMP2 (from UniProt P42212 149-238; P42212 1-144)", "values": [
      {"measurement": "percent present as dimer at the concentrations seen in the brain slice (∼10 μM)", "value": 5, "unit": "%"},
      {"measurement": "stoichiometry N", "value": 2}
    ]}
  ]
}
